From US20100086540A1

Legend:
[1] = target: soluble extracellular domain of EGFR (sEGFR) (UniProt P00533); test: SPR competition: Fab11F8 added to 600 nM sEGFR, passed over immobilized EGF
[2] = target: isolated domain III of sEGFR (sEGFRd3) (UniProt P00533); test: SPR (BIAcore 3000), sEGFRd3 passed over immobilized Fab11F8, equilibrium analysis
[3] = target: soluble extracellular domain of EGFR (sEGFR) (UniProt P00533); test: SPR (BIAcore 3000), sEGFR passed over immobilized Fab11F8, equilibrium response, one-site Langmuir fit

Chain of antibody 11F8 Fab fragment (VH): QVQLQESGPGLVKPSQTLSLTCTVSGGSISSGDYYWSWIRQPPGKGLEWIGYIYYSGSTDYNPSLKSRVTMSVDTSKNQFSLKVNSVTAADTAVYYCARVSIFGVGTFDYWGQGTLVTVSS
Chain of antibody 11F8 Fab fragment (VL): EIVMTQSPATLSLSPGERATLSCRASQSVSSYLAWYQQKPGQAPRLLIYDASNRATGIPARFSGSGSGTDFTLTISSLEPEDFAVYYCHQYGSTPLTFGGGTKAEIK

IC50 [1]: 100 nM
Kd [2]: 1 nM
Kd [3]: 3.3 nM
Substance: antibody 11F8 Fab fragment
